Data on 15 molecules can be found in publication PMC4344524, “Combinatorial recognition of a complex telomere repeat sequence by the Candida parapsilosis Cdc13AB heterodimer”.

For data set [1], the target named is CpCdc13AB-DBD complex (Candida parapsilosis) (UniProt G8B7U9+G8B5A5). The data set is described as follows: EMSA. Conditions: stated as full-length Kd (~10 nM) at least 100-fold lower; weak shift detected; EMSA: 50 mM Tris-HCl pH 7.5, 2 mM MgCl2, 10 mM NaCl, 1 mM spermidine, 1 mM DTT, 200 ng/ul poly(dI-dC), 5% glycerol, 25 C 60 min; crosslinking: same buffer ….

The target in data set [2] is T1, CpCdc13AB heterodimer: His6-SUMO-Cdc13A + GST-Cdc13B-FLAG (Candida parapsilosis, UniProt G8B7U9;G8B5A5 1-456;1-475).
T1 sequence 1: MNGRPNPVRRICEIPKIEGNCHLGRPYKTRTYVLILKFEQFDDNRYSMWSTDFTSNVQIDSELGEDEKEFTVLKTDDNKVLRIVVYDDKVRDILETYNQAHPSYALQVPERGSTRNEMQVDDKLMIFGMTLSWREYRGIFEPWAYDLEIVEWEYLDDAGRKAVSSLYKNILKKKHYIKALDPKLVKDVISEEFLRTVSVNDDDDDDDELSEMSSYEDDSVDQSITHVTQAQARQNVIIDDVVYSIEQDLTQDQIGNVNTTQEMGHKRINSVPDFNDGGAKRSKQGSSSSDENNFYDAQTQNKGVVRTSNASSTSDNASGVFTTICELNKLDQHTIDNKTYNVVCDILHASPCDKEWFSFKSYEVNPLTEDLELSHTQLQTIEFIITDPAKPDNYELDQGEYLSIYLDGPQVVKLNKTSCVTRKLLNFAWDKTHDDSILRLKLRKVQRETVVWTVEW
T1 sequence 2: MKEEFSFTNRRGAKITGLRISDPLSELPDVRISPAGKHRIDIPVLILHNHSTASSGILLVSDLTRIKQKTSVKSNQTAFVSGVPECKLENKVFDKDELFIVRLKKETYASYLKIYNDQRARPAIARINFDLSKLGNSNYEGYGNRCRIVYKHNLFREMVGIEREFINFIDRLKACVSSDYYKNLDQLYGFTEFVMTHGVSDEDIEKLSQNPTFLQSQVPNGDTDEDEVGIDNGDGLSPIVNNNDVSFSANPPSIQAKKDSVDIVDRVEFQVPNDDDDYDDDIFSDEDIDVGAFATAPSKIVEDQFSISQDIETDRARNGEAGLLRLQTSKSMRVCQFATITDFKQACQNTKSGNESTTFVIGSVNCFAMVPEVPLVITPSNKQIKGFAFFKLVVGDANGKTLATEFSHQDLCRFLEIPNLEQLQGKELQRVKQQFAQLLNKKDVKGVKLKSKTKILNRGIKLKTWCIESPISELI
As to the kind of experiment: competition; vs CpG2 probe; EMSA: 50 mM Tris-HCl pH 7.5, 2 mM MgCl2, 10 mM NaCl, 1 mM spermidine, 1 mM DTT, 200 ng/ul poly(dI-dC), 5% glycerol, 25 C 60 min; crosslinking: same buffer, 22 C 1 h, then UV on ice 20 min. Conditions: protein: recombinant; tags: His6-SUMO (A); GST and FLAG (B); copies: 1;1. A general note: In EMSA bound probe runs differently from free probe, usually more slowly.

Data set [3] has as its target T1, CpCdc13AB heterodimer: His6-SUMO-Cdc13A …. As to the kind of experiment: EMSA; apparent Kd; EMSA: 50 mM Tris-HCl pH 7.5, 2 mM MgCl2, 10 mM NaCl, 1 mM spermidine, 1 mM DTT, 200 ng/ul poly(dI-dC), 5% glycerol, 25 C 60 min; crosslinking: same buffer, 22 C 1 h, then UV on ice 20 min. To be noted: protein: recombinant; tags: His6-SUMO (A); GST and FLAG (B); copies: 1;1.

The target is the same in data set [4]. The data set is described as follows: competition; affinity unaffected; EMSA: 50 mM Tris-HCl pH 7.5, 2 mM MgCl2, 10 mM NaCl, 1 mM spermidine, 1 mM DTT, 200 ng/ul poly(dI-dC), 5% glycerol, 25 C 60 min; crosslinking: same buffer, 22 C 1 h, then UV on ice 20 min. To be noted: protein: recombinant; tags: His6-SUMO (A); GST and FLAG (B); copies: 1;1.
For data set [5] the target is unchanged. The data set is described as follows: UV photo-crosslinking; lower product level than IO-1 and IO-3; EMSA: 50 mM Tris-HCl pH 7.5, 2 mM MgCl2, 10 mM NaCl, 1 mM spermidine, 1 mM DTT, 200 ng/ul poly(dI-dC), 5% glycerol, 25 C 60 min; crosslinking: same buffer, 22 C 1 h, then UV on ice 20 min. To be noted: protein: recombinant; tags: His6-SUMO (A); GST and FLAG (B); copies: 1;1; label: 32P.

The target is the same in data set [6]. The data set is described as follows: UV photo-crosslinking; mostly Cdc13B adducts; EMSA: 50 mM Tris-HCl pH 7.5, 2 mM MgCl2, 10 mM NaCl, 1 mM spermidine, 1 mM DTT, 200 ng/ul poly(dI-dC), 5% glycerol, 25 C 60 min; crosslinking: same buffer, 22 C 1 h, then UV on ice 20 min. Conditions: protein: recombinant; tags: His6-SUMO (A); GST and FLAG (B); copies: 1;1; label: 32P.

For data set [7] the target is unchanged. As to the kind of experiment: competition; inactive as competitor; EMSA: 50 mM Tris-HCl pH 7.5, 2 mM MgCl2, 10 mM NaCl, 1 mM spermidine, 1 mM DTT, 200 ng/ul poly(dI-dC), 5% glycerol, 25 C 60 min; crosslinking: same buffer, 22 C 1 h, then UV on ice 20 min. Conditions: protein: recombinant; tags: His6-SUMO (A); GST and FLAG (B); copies: 1;1.
Data set [8] has the same target. The data set is described as follows: competition; no effect of truncation; EMSA: 50 mM Tris-HCl pH 7.5, 2 mM MgCl2, 10 mM NaCl, 1 mM spermidine, 1 mM DTT, 200 ng/ul poly(dI-dC), 5% glycerol, 25 C 60 min; crosslinking: same buffer, 22 C 1 h, then UV on ice 20 min. Conditions: protein: recombinant; tags: His6-SUMO (A); GST and FLAG (B); copies: 1;1.
For data set [9] the target is unchanged. As to the kind of experiment: competition; no effect; EMSA: 50 mM Tris-HCl pH 7.5, 2 mM MgCl2, 10 mM NaCl, 1 mM spermidine, 1 mM DTT, 200 ng/ul poly(dI-dC), 5% glycerol, 25 C 60 min; crosslinking: same buffer, 22 C 1 h, then UV on ice 20 min. Conditions: protein: recombinant; tags: His6-SUMO (A); GST and FLAG (B); copies: 1;1.
The target is the same in data set [10]. As to the kind of experiment: competition; vs CpG2 probe; EMSA: 50 mM Tris-HCl pH 7.5, 2 mM MgCl2, 10 mM NaCl, 1 mM spermidine, 1 mM DTT, 200 ng/ul poly(dI-dC), 5% glycerol, 25 C 60 min; crosslinking: same buffer, 22 C 1 h, then UV on ice 20 min. To be noted: protein: recombinant; tags: His6-SUMO (A); GST and FLAG (B); copies: 1;1. The source holds these as a separate data set.

Data set [11] has the same target. The data set is described as follows: EMSA; EMSA: 50 mM Tris-HCl pH 7.5, 2 mM MgCl2, 10 mM NaCl, 1 mM spermidine, 1 mM DTT, 200 ng/ul poly(dI-dC), 5% glycerol, 25 C 60 min; crosslinking: same buffer, 22 C 1 h, then UV on ice 20 min. To be noted: protein: recombinant; tags: His6-SUMO (A); GST and FLAG (B); copies: 1;1.
The target is the same in data set [12]. The data set is described as follows: UV photo-crosslinking; Cdc13A adducts; EMSA: 50 mM Tris-HCl pH 7.5, 2 mM MgCl2, 10 mM NaCl, 1 mM spermidine, 1 mM DTT, 200 ng/ul poly(dI-dC), 5% glycerol, 25 C 60 min; crosslinking: same buffer, 22 C 1 h, then UV on ice 20 min. To be noted: protein: recombinant; tags: His6-SUMO (A); GST and FLAG (B); copies: 1;1; label: 32P.

Take ATTATACTGAGGTCCGGATGTTG [CpG1]: the Kd in data set [1] was above 1000 nM. As to GATCATTGGTGTACGGATGTCACGATCATTGGTGTACGGATGTCAC (ssDNA) [CtG2], the binding result in data set [2] is on record as “no binding”.

Take ATTATACTGAGGTCCGGATGTTGATTATACTGAGGTCCGGATGTTG (ssDNA) [CpG2]: the Kd in [3] was around 7.07 nM.

Take ATTATACTGAGGTCCGGATGTCA (ssDNA) [CpG1-Ct4]: in data set [4], the binding result is listed as “binds”. As for ATTATACTGAGGTCCGGATGTTG (ssDNA, 5-iodo-dU at T13 of CpG1) [IO-2], the binding result in data set [5] is “binds”.

On to ATTATACTGAGGTCCGGATGTTG (ssDNA, 5-iodo-dU at T8 of CpG1) [IO-1], for which the binding result in data set [6] is “binds”. Consider GTGGGTGTGTGGGTGTGTGGGTGTGTGGGTGTGT (ssDNA) [ScTG34], for which the binding result in data set [2] is on record as “no binding”.

As to ATTATACTGAGGTCCGGAT (ssDNA) [CpG1-Δ4], in [7], the binding result is on record as “no binding”. TACTGAGGTCCGGATGTTG (ssDNA) [CpG1-Δ1]: the binding result in [8] is given as “binds”. Turning to CGATTACTGAGGTCCGGATGTTG (ssDNA) [CpG1-Ct1], in data set [4], the binding result is recorded as “binds”. On to ATTACATTGAGGTCCGGATGTTG (ssDNA) [CpG1-Ct2], for which the binding result in data set [9] is “binds”. CTGATGTTCTTTAGGGAGGTACTGATGTTCTTTAGGGAGGTA (ssDNA) [ClG2]: in data set [10], the binding signal is ~20 fold higher concentration for 50% inhibition.

CCGGATGTTGATTATACTGAGGT (ssDNA) [CpG1b]: the binding result in data set [2] is “no binding”.

Regarding ATTATACTGAGGTCCGGATGTTG (ssDNA) [CpG1], the Kd in data set [11] is around 10 nM. In the case of ATTATACTGAGGTCCGGATGTTG (ssDNA, 5-iodo-dU at T19 of CpG1) [IO-3], the binding result in [12] is recorded as “binds”.
